Results taken from patent US10357539B2, “Use of peptides that block metadherin-SND1 interaction as treatment for cancer” (THE TRUSTEES OF PRINCETON UNIVERSITY, priority 2014, dated 2019).
“Also recorded” adds a separate entry of the source.

How the values were obtained:
MTDH-SND1 interaction = molecular target: T1, MTDH-SND1 interaction (Homo sapiens, UniProt Q7KZF4); test: Immunoprecipitation assay: elution or co-incubation with MTDH peptides, western blot; assay type: biochemical; conditions: 50 uM of peptides; IP of HA-SND1 from 293T (HA-SND1 + MYC-MTDH) and of endogenous SND1 from MDA-MB-231
T1 construct: Full-length HA-tagged SND1 was co-expressed with full-length Myc-tagged wild-type (WT) or mutant MTDH in HEK293T cells; expressed in transfected cells; host or cells: 293T
T1 sequence (Q7KZF4 1-910): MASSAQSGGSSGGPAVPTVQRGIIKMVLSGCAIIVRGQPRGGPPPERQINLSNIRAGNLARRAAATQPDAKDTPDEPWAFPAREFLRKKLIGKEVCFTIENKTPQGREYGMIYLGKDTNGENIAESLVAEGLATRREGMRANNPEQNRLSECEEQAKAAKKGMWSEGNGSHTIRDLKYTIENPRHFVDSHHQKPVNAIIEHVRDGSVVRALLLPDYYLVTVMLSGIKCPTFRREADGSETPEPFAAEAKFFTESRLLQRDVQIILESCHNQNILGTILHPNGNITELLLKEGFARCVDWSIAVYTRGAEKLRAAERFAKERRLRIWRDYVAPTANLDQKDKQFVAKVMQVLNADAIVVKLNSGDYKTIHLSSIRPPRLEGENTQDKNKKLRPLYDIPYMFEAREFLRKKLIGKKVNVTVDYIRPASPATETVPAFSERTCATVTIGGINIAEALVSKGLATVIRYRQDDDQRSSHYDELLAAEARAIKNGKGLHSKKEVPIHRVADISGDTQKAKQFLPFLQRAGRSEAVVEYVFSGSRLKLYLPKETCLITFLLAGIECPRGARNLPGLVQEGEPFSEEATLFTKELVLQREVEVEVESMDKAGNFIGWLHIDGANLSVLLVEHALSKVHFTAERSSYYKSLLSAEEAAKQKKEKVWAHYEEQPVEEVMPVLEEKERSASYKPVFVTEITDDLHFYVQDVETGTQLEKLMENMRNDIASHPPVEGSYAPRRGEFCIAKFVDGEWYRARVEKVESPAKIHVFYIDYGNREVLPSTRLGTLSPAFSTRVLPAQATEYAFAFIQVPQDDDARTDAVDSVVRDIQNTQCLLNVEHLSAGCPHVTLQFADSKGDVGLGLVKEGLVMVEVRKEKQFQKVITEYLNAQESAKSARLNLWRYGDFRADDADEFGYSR
Method: 293T cells co-transfected with HA-SND1 and MYC-MTDH. After 48 hr cells were collected and subjected to IP assay. (FIG. 26A, FIG. 26B) Cell lysate was incubated with anti-HA antibody or IgG overnight followed by 2 hr incubation with Protein A/G beads to pull down HA-SND1 protein. The beads was washed with lysis buffer and split into 5 fractions. Each fraction was eluted with buffer or indicated peptides for 30 min. The elution fractions and beads were collected for WB. (FIG. 26C, FIG. 26D) Cell lyaste was split into 6 fractions, one of them was incubated with IgG and the rest were incubated with anti-HA antibody plus either buffer or indicated peptides. After 24 hr, the lysate was incubated with Protein A/G beads then the beads were washed in wash buffer.
Breast cancer cells MDA-MB231 were collected and subjected to IP assay. (FIG. 27A) Cell lysate was incubated with anti-SND1 antibody or IgG overnight followed by 2 hr incubation with Protein A/G beads to pull down endogenous SND1 protein. The beads were washed with lysis buffer and split into 5 fractions. Each fraction was eluted with buffer or indicated peptides for 30 min. The elution fractions and beads were collected for WB. (FIG. 27B) Cell lyaste was split into 5 fractions, and incubated with anti-SND1 antibody plus either buffer or indicated peptides. After 24 hr, the lysate was incubated with Protein A/G beads then the beads were washed in wash buffer.
293 T cells were co-transfected with HA-SND1 and MYC-MTDH. After 48 hours, the cells were collected and subject to immunoprecipitation assay. Cell lysate was incubated with anti-HA antibody or IgG overnight followed by a two hour incubation with Protein A/G beads to pull down HA-SND1 protein. The beads were washed with lysis buffer and split into five fractions. Each fraction was eluted with buffer or indicated peptides (i.e., Peptide—wt (PNSDWNAPAEEWGNW, SEQ ID NO: 16); Peptide-394A (PNSDANAPAEEWGNW, SEQ ID NO: 17); Peptide-401A (PNSDWNAPAEEAGNW, SEQ ID NO: 18) and Peptide-MT (PNSDANAPAEEAGNW, SEQ ID NO: 19) for 30 minutes.
The elution fractions and beads were collected for western blot. (FIGS. 26C and 26D) Cell lyaste was split into 6 fractions. One of the fractions was incubated with IgG and the rest were incubated with anti-HA antibody plus either buffer or indicated peptides. After 24 hours, the lysate was incubated with Protein A/G beads then the beads was washed followed by wash buffer. 50 uM of peptides was used in all the assays.
The interaction interruption effects was confirmed by endogenous immunoprecipitation (IP) of a breast cancer cell line. Briefly, cell lysates from the breast cancer cell line MDA-MB-231 were collected and subjected to IP assay. […]

SND1 [1] = molecular target: T2, SND1 (Homo sapiens, UniProt Q7KZF4); test: GST-mediated pull-down of SND1 by GST-tagged MTDH fragments and mutants; assay type: binding; conditions: His6-SND1ΔC (1-339); Coomassie blue staining
T2 construct: 15 μg of His-SND1 (16-339) was added to the resin; made in house; host or cells: E. coli DH5α
T2 sequence (Q7KZF4 1-339): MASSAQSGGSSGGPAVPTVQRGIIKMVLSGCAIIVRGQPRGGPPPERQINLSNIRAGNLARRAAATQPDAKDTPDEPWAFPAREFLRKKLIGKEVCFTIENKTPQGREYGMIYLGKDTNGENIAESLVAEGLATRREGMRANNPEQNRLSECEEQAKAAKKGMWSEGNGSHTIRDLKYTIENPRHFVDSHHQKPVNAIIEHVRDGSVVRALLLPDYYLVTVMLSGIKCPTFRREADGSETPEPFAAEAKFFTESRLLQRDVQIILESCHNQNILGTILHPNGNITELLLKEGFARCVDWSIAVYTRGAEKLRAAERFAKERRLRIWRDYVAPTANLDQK
Outline: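 GST-MTDH fragments or mutants (~20 μg) on glutathione resin incubated with 15 μg His-SND1 (16-339) in 25 mM Tris pH 8.0, 150 mM NaCl, 3 mM DTT plus 2 mg/ml BSA. Bound protein resolved by SDS-PAGE, Coomassie-stained; bound SND1 ratio quantified by densitometry over 3 repeats.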

SND1 [2] = molecular target: T3, SND1 (Homo sapiens, UniProt Q7KZF4); test: Co-immunoprecipitation of full-length Myc-MTDH (WT or mutant) and HA-SND1 in HEK293T cells; assay type: cell-based; conditions: HEK293T cell lysates, immunoprecipitation and immunoblot
T3 construct: Full-length HA-tagged SND1 was co-expressed with full-length Myc-tagged wild-type (WT) or mutant MTDH in HEK293T cells; expressed in transfected cells; host or cells: HEK293T
T3 sequence (Q7KZF4 1-910): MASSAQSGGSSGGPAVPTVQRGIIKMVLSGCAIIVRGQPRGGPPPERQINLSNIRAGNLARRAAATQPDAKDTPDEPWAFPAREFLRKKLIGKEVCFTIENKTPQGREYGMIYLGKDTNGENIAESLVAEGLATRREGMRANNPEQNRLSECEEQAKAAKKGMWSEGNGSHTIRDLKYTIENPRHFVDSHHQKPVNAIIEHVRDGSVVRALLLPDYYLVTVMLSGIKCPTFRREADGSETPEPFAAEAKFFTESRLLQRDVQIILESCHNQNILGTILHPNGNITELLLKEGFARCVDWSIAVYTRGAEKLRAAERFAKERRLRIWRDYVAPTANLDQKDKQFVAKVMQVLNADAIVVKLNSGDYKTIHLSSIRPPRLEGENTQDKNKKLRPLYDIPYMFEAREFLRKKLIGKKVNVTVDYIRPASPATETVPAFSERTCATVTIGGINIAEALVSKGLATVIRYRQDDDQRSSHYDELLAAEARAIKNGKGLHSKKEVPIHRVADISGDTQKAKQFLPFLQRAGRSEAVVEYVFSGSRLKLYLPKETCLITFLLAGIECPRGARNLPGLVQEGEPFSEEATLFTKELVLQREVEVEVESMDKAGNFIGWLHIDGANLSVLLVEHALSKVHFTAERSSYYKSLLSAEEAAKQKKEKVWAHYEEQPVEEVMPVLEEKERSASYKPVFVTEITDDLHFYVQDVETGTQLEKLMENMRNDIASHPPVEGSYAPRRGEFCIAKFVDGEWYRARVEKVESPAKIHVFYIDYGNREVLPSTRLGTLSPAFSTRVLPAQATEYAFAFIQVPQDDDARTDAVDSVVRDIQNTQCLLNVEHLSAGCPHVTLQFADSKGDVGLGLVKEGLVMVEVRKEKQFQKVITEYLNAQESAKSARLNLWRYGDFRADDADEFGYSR

AGO2 = molecular target: T4, AGO2 (Homo sapiens, UniProt Q9UKV8); test: Co-immunoprecipitation of Myc-MTDH mutants with AGO2 in HEK293T cells; assay type: cell-based; conditions: HEK293T cell lysates, anti-Myc immunoprecipitation
T4 construct: expressed in transfected cells; host or cells: HEK293T
Excerpt: FIGS. 7A-E represents determination of key regions and residues mediating the MTDH-SND1 interaction. (FIG. 7A) Schematics of MTDH fragments and mutants with indicated SND1-binding capability. + indicates binding and − indicates no binding based on results shown below. Two putative nuclear localization signals are residues 432-451 for NLS2 and residues 561-580 for NLS3. In the enlarged view of the minimal binding region 386-407, 9 residues were targeted for mutagenesis in the current study. […] (FIG. 7B) Pulldown of His6-SND1AC by GST-tagged MTDH fragments with indicated boundaries. The bound proteins were examined by SDS-PAGE and visualized by Coomassie blue staining. (FIG. 7C) Pulldown of His6-SND1ΔC by GST-tagged WT or triple mutant MTDH fragments (364-582). For (FIG. 7B) and (FIG. 7C), 1/10 of the His6-SND1ΔC input was shown, and GST alone was used as a negative control. Representative results of 3 independent experiments are shown. (FIG. 7D, FIG. 7E) Lysates from HEK293T cells expressing the indicated ectopic human SND1, AGO2 or MTDH were immunoprecipitated with anti-Myc and immunoblotted with the indicated antibodies. […]

T4 sequence (Q9UKV8 whole entry): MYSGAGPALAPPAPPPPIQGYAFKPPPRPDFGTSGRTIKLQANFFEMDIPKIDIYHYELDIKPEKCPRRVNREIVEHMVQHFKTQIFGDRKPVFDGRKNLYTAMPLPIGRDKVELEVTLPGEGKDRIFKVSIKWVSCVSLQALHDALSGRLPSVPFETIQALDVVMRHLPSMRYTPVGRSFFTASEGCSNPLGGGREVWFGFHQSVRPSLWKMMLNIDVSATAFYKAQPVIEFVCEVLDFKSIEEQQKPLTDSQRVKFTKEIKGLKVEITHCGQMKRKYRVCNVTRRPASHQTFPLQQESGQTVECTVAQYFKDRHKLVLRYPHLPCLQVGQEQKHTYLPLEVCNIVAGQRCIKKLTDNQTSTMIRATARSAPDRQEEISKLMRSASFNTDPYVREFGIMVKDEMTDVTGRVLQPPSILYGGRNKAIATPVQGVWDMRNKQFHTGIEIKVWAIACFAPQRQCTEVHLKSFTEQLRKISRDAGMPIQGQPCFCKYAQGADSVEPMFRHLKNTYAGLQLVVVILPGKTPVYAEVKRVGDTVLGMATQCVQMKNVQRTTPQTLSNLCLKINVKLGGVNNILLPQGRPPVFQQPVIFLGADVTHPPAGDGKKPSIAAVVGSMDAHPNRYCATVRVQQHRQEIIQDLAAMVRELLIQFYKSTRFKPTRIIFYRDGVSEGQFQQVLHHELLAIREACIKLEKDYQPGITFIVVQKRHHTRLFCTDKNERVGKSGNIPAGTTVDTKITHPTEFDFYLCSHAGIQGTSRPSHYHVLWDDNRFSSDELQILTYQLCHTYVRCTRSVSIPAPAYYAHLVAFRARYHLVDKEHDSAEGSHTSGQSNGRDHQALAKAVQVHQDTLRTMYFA

## PNSDANAPAEEAGNW (listed as Homo sapiens) [double point mutation]
MTDH-SND1 interaction
  block of MTDH-SND1 interaction by peptide: have no effect in interrupting the interaction of MTDH with SND1

## PNSDWNAPAEEWGNW (listed as Homo sapiens) [wild type MTDH peptide]
MTDH-SND1 interaction
  block of MTDH-SND1 interaction by peptide: can effectively block MTDH-SND1 interaction; also recorded: significant block MTDH-SND1 interaction

## PNSDWNAPAEEAGNW (listed as Homo sapiens)
MTDH-SND1 interaction
  block of MTDH-SND1 interaction by peptide: reduced the effectiveness of the wild type peptide by half

## PNSDANAPAEEWGNW (listed as Homo sapiens) [single point mutation W394A]
MTDH-SND1 interaction
  block of MTDH-SND1 interaction by peptide: have no effect in interrupting the interaction of MTDH with SND1

B1: TPM1: MTDH triple-point mutant D389R, D393R and W394D (protein)
chain: YQWDVSRNQPYIDDEWSGLNGLSSARPNSRDNAPAEEWGNWVDEERASLLKSQEPIPDDQKVSDDDKEKGEGALPTGKSKKKKKKKKKQGEDNSTAQDTEELEKEIREDLPVNTSKTRPKQEKAFSLKTISTSDPAEVLVKNSQPIKTLPPATSTEPSVILSKSDSDKSSSQVPPILQETDKSKSNTKQNSVPPSQTKSETSWESPKQIKKKKKARRET
modifications: left off: a dimerising Fc or GST
notes: MTDH triple-point mutant D389R, D393R and W394D
SND1 [1]
  SND1-binding of MTDH fragments and triple mutants, in vitro: could not bind
SND1 [2]
  interaction of full-length MTDH (WT or mutant) with HA-SND1: not
AGO2
  interaction of MTDH mutants with AGO2: still able to interact with AGO2

B2: TPM2: MTDH triple-point mutant E399R, E400R and W401D (protein)
chain: YQWDVSRNQPYIDDEWSGLNGLSSADPNSDWNAPARRDGNWVDEERASLLKSQEPIPDDQKVSDDDKEKGEGALPTGKSKKKKKKKKKQGEDNSTAQDTEELEKEIREDLPVNTSKTRPKQEKAFSLKTISTSDPAEVLVKNSQPIKTLPPATSTEPSVILSKSDSDKSSSQVPPILQETDKSKSNTKQNSVPPSQTKSETSWESPKQIKKKKKARRET
modifications: left off: a dimerising Fc or GST
notes: MTDH triple-point mutant E399R, E400R and W401D
SND1 [1]
  SND1-binding of MTDH fragments and triple mutants, in vitro: could not bind
SND1 [2]
  interaction of full-length MTDH (WT or mutant) with HA-SND1: not
AGO2
  interaction of MTDH mutants with AGO2: still able to interact with AGO2
